Results: the supplement of paper PMC7877785
± gives the uncertainty stated by the source.

Experiment: self-splicing fitness, log relative to wild type (ln ratio); higher = more splicing; Tetrahymena group I intron in knt gene, E. coli kanamycin selection, DiMSum; sequences stand for … in CUCUCU…GGAGGGAAAAGUUAUCAGGCAUGCACCUGGUAGCUAGUCUUUAAACCAAUAGAUUGCAUCGGUUUAAAAGGCAAGACCGUCAAAUUGCGGGAAAGGGGUCAACAGCCGUUCAGUACCAAGUCUCAGGGGAAACUUUGAGAUGGCCUUGCAAAGGGUAUGGUAAUAAGCUGACGGACAUGGUCCUAACCACGCAGCCAAGUCCUAAGUCAACAGAUCUUCUGUUGAUAUGGAUGCAGUUCACAGACUAAAUGUCGGUCGGGGAAGAUGUAUUCUUCUCAUAAGAUAUAGUCGGACCUCUCCUUAAUGGGAGCUAGCGGAUGAAGUGAUGCAACACUGGAGCCGCUGGGAACUAAUUUGUAUGCGAAAGUAUAUUGAUUAGUUUUGGAGUACUCGUGGUCG
Procedure, shortened: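 Library with all eight P1ex-region intron nucleotides randomised, intron inside the knt kanamycin-resistance gene on pET-22b(+), in E. coli BL21(DE3). Cells grew overnight at 37°C or 30°C on LB agar with or without 25 μg/mL kanamycin (plus 100 μg/mL carbenicillin, 50 μM IPTG, 0.2% rhamnose), in six replicate transformations. Pooled colonies were amplicon-sequenced on Illumina HiSeq 2500. DiMSum fitness is the error-weighted combination of wild-type-normalised replicate fold changes, kanamycin versus none.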

Row | Sequence | self-splicing fitness (ln) (30 °C) | self-splicing fitness (ln) (37 °C)
1 | UCAAAGCAAUAUUACGCUAU | -3.44 ± 0.22 | -1.41 ± 0.18
2 | ACAGAGCAAUAUUACGGCUG | -0.984 ± 0.096 | -0.796 ± 0.13
3 | GGGAAGCAAUAUUACGCUUA | -0.798 ± 0.12 | -0.449 ± 0.12
4 | UCCAAGCAAUAUUACGGAGA | -0.684 ± 0.087 | -0.415 ± 0.092
5 | UCAGAGCAAUAUUACGAUGG | -2.97 ± 0.21 | -1.33 ± 0.2
6 | CCAAAGCAAUAUUACGUGGA | -3.55 ± 0.15 | -2.81 ± 0.21
7 | UACGAGCAAUAUUACGCAAA | -2.36 ± 0.28 | -1.67 ± 0.47
8 | ACAAAGCAAUAUUACGUCAC | -4.13 ± 0.18 | -2.53 ± 0.16
9 | ACCGAGCAAUAUUACGUUGA | -2.98 ± 0.17 | -2.59 ± 0.21
10 | UCGCAGCAAUAUUACGGUCG | -0.126 ± 0.094 | 0.0192 ± 0.14
11 | UUAAAGCAAUAUUACGUUGA | -0.721 ± 0.066 | -0.0751 ± 0.094
12 | AGAAAGCAAUAUUACGCCCA | 0.247 ± 0.12 | 0.167 ± 0.2
13 | GAGGAGCAAUAUUACGUCCG | -2.52 ± 0.24 | -2.24 ± 0.31
14 | UCACAGCAAUAUUACGGCGU | -3.04 ± 0.19 | -2.93 ± 0.2
15 | GAGCAGCAAUAUUACGAUGG | -3.68 ± 0.25 | -2.61 ± 0.31
16 | UAACAGCAAUAUUACGGGUU | -3.91 ± 0.15 | -3.58 ± 0.19
17 | AUAAAGCAAUAUUACGUAUA | -1.91 ± 0.099 | -0.351 ± 0.12
18 | CGCUAGCAAUAUUACGCUUA | -3.03 ± 0.33 | -2.75 ± 0.27
19 | UUGGAGCAAUAUUACGGCAU |  | -1.76 ± 0.24
20 | AUAGAGCAAUAUUACGGAGA | -1.97 ± 0.26 | -2.31 ± 0.39
21 | CUGGAGCAAUAUUACGAGCG | -1.05 ± 0.094 | -0.179 ± 0.11
22 | GGGGAGCAAUAUUACGUGAU | -2.84 ± 0.25 | -1.8 ± 0.26
23 | AGUUAGCAAUAUUACGUUCA | -1.28 ± 0.15 | -0.155 ± 0.16
24 | AAAGAGCAAUAUUACGCCUU | -3.49 ± 0.29 | -1.81 ± 0.23
25 | CAUGAGCAAUAUUACGGUUA | -2.75 ± 0.23 | -3.26 ± 0.32

Row | Sequence | self-splicing fitness (ln) (30 °C) | self-splicing fitness (ln) (37 °C)
26 | UUGCAGCAAUAUUACGUGUG | -2.1 ± 0.087 | -1.68 ± 0.12
27 | GUAAAGCAAUAUUACGAACA | -0.969 ± 0.15 | 0.323 ± 0.16
28 | UUUCAGCAAUAUUACGAGCU |  | -1.95 ± 0.5
29 | UGGAAGCAAUAUUACGGCGA | -0.779 ± 0.12 | -0.28 ± 0.16
30 | AGACAGCAAUAUUACGCCUC | -4.48 ± 0.36 | -2.08 ± 0.21
31 | UCAUAGCAAUAUUACGAGGU | -2.98 ± 0.24 | -3.42 ± 0.32
32 | GUCGAGCAAUAUUACGCCUU | -1.46 ± 0.28 | -1.77 ± 0.41
33 | CUACAGCAAUAUUACGCCUC | -3.9 ± 0.3 | -0.901 ± 0.34
34 | UAGUAGCAAUAUUACGGUAA | -2.68 ± 0.3 | -2.18 ± 0.29
35 | GGUGAGCAAUAUUACGCAAU | -3.03 ± 0.32 | -1.94 ± 0.43
36 | CGCAAGCAAUAUUACGGGAA | -2.96 ± 0.2 | -2.27 ± 0.19
37 | ACAAAGCAAUAUUACGAGCA | -1.56 ± 0.14 | -0.49 ± 0.12
38 | GGAAAGCAAUAUUACGCAAU | -2.27 ± 0.45 | -0.77 ± 0.32
39 | UUAUAGCAAUAUUACGGACC | -3.38 ± 0.47 | -1.41 ± 0.21
40 | AAGCAGCAAUAUUACGCUUU | -4.53 ± 0.2 | -2.87 ± 0.22
41 | ACCCAGCAAUAUUACGUCGG | -2.15 ± 0.073 | -0.593 ± 0.088
42 | CUUUAGCAAUAUUACGGGAC | -3.25 ± 0.36 | -2.36 ± 0.42
43 | CCUAAGCAAUAUUACGUUCC | -3.6 ± 0.3 | -1.8 ± 0.34
44 | CAUUAGCAAUAUUACGUGAG | -1.55 ± 0.14 | 0.776 ± 0.12
45 | AUGCAGCAAUAUUACGGGCA | -0.699 ± 0.11 | 0.227 ± 0.12
46 | UCGUAGCAAUAUUACGACAU | -3.861 ± 0.035 | -2.69 ± 0.043
47 | CCUUAGCAAUAUUACGCUUU | -3.64 ± 0.31 | -2.46 ± 0.22
48 | CGAGAGCAAUAUUACGAAUC | -2.29 ± 0.27 | 
49 | CAGUAGCAAUAUUACGUGAG | -1.18 ± 0.067 | -0.54 ± 0.12
50 | UGUUAGCAAUAUUACGGUAC |  | -2.68 ± 0.48

Row | Sequence | self-splicing fitness (ln) (30 °C) | self-splicing fitness (ln) (37 °C)
51 | UUCCAGCAAUAUUACGGGUA | -0.292 ± 0.08 | 0.0398 ± 0.088
52 | GUUCAGCAAUAUUACGGCUA | -0.564 ± 0.14 | -0.232 ± 0.15
53 | AGACAGCAAUAUUACGAACU | -0.675 ± 0.076 | 0.326 ± 0.096
54 | UAAUAGCAAUAUUACGCACA | -0.694 ± 0.14 | -0.0269 ± 0.15
55 | GGGAAGCAAUAUUACGUUGA | -3.37 ± 0.23 | -1.94 ± 0.18
56 | UCACAGCAAUAUUACGAUAG | -2.75 ± 0.14 | -1.22 ± 0.12
57 | AUCCAGCAAUAUUACGAGCC | -3.17 ± 0.25 | -3.32 ± 0.33
58 | UGUCAGCAAUAUUACGCAAC | -2.59 ± 0.33 | -1.26 ± 0.28
59 | CUAGAGCAAUAUUACGUUCA | -3.21 ± 0.24 | -1.36 ± 0.29
60 | UUCGAGCAAUAUUACGUGUC | -3.11 ± 0.23 | -2.77 ± 0.34
61 | AAUAAGCAAUAUUACGGUAA | -1.73 ± 0.16 | -1.03 ± 0.11
62 | GCUGAGCAAUAUUACGAUUA | -2.88 ± 0.37 | -0.431 ± 0.38
63 | CUCCAGCAAUAUUACGGAAG | -3.34 ± 0.16 | -3.14 ± 0.24
64 | CGGCAGCAAUAUUACGUUGG | -2.38 ± 0.11 | -1.46 ± 0.12
65 | UUUUAGCAAUAUUACGGUCA | -1.25 ± 0.17 | -0.069 ± 0.13
66 | UAUAAGCAAUAUUACGCGAU | -3.6 ± 0.21 | -3.37 ± 0.22
67 | GGCUAGCAAUAUUACGUCGU | 0.26 ± 0.075 | 0.153 ± 0.092
68 | AAAUAGCAAUAUUACGAUCC | -0.358 ± 0.14 | -0.695 ± 0.17
69 | CUGUAGCAAUAUUACGGUUC | -3.87 ± 0.14 | -3.71 ± 0.22
70 | GACGAGCAAUAUUACGGGGU |  | -2.59 ± 0.25
71 | UCCUAGCAAUAUUACGUCGA | -0.0892 ± 0.07 | 0.0864 ± 0.078
72 | AUUAAGCAAUAUUACGUCAG | -3.01 ± 0.24 | -1.85 ± 0.21
73 | UAUAAGCAAUAUUACGGCUG | 0.381 ± 0.13 | 0.0603 ± 0.14
74 | GCAAAGCAAUAUUACGGUGG | -2.27 ± 0.12 | -2.43 ± 0.19
75 | UUUUAGCAAUAUUACGGUAG | -1.6 ± 0.18 | -1.74 ± 0.16

Row | Sequence | self-splicing fitness (ln) (30 °C) | self-splicing fitness (ln) (37 °C)
76 | UAUCAGCAAUAUUACGCAAA | -0.36 ± 0.12 | -0.755 ± 0.11
77 | CAAGAGCAAUAUUACGCUCU | -3.49 ± 0.32 | -1.86 ± 0.27
78 | CAAAAGCAAUAUUACGGGCG | -0.0633 ± 0.084 | 0.608 ± 0.11
79 | AUCAAGCAAUAUUACGUUUA | -1.73 ± 0.1 | -1.31 ± 0.093
80 | CGCAAGCAAUAUUACGGAGG | -1.02 ± 0.057 | -0.818 ± 0.072
81 | ACUGAGCAAUAUUACGCGUA | -1.8 ± 0.15 | -3.16 ± 0.28
82 | GUGCAGCAAUAUUACGGAUC | 0.0925 ± 0.13 | 0.198 ± 0.14
83 | GUCGAGCAAUAUUACGCCAU | -2.99 ± 0.28 | -2.4 ± 0.24
84 | AGUUAGCAAUAUUACGAAAA | -2.79 ± 0.49 | -1.5 ± 0.32
85 | GGUUAGCAAUAUUACGAGGA | -3.3 ± 0.29 | -1.96 ± 0.24
86 | GGCGAGCAAUAUUACGCUAG | -3.88 ± 0.28 | -2.82 ± 0.23
87 | GCAAAGCAAUAUUACGUGAC | -2.78 ± 0.12 | -1.1 ± 0.13
88 | UCGUAGCAAUAUUACGAAUG | -2.01 ± 0.29 | 
89 | CUCUAGCAAUAUUACGGUAU | -2.7 ± 0.16 | -2.77 ± 0.23
90 | CUUCAGCAAUAUUACGCCUC |  | -3.49 ± 0.32
91 | CGUGAGCAAUAUUACGCGAU | -2.75 ± 0.23 | -1.35 ± 0.24
92 | UCUGAGCAAUAUUACGCAUG | -2.33 ± 0.18 | -1.65 ± 0.17
93 | CUUAAGCAAUAUUACGCGCA | -3.58 ± 0.35 | 
94 | UAAUAGCAAUAUUACGAGUG | -1.11 ± 0.08 | -0.572 ± 0.09
95 | UGAAAGCAAUAUUACGGGCC | -3.48 ± 0.23 | -1.32 ± 0.22
96 | UUCUAGCAAUAUUACGCGGA | -3.93 ± 0.3 | -3.75 ± 0.33
97 | UAAAAGCAAUAUUACGCACG | -0.983 ± 0.079 | -0.0988 ± 0.1
